B1: Carboxy-terminal truncated SAA2.2 (SAA2.2ΔC), truncated after the ninetieth amino acid residue (domain or fragment, mouse (CE/J strain), UniProt P05367 20-109, looked up)
chain: GFFSFVHEAFLGAGDMWRAYTDMKEAGWKDGDKYFHARGNYDAAQRGPGGVWAAEKISDGREAFQEFFGRGHEDTMADQEANRHGRSGKD
B2: Serum amyloid A isoform SAA2.2 from the CE/J mouse strain, full-length (103 amino acids) (natural protein, mouse (CE/J strain), UniProt P05367 20-122, looked up)
chain: GFFSFVHEAFLGAGDMWRAYTDMKEAGWKDGDKYFHARGNYDAAQRGPGGVWAAEKISDGREAFQEFFGRGHEDTMADQEANRHGRSGKDPNYYRPPGLPDKY

Experiments:
[1] = target: the molecule itself; test: dynamic light scattering
[2] = target: the molecule itself; test: SEC

Protein	stoichiometry N [1] [subunits]	stoichiometry N [2] [subunits]
B1	70 to 170	
B2		8
